B1: Hairpin Ribozyme (parent)
chain: GUCCUCUUUCACGUGCGCGUGAAAGAGAGAAGUGAACCAGAGAAACACACGUUGUGGUAUAUUACCUGGUA

Variants of: B1
Experiment: self-cleavage, relative activity (ratio to wild type); higher = more cleavage; co-transcriptional

With GUCCUCUUUCACGUGCGCGUGAAAGAGAGAAGUGAACCAGAGAAACAGACGUUGUGGUAUGUUACCUGGUA as the variant, how does the self-cleavage read?
Its self-cleavage is 0.131.

Which self-cleavage does the source give for GUCCUCUUUCACGUGCGCGUGAAAGAGAGAAGUGAACCAGAGAAACAGACGUUGUGGUAUAUUACCUGGUC here?
Its self-cleavage is 0.231.

For GUCCUCUUUCACGUGCGCGUGAAAGAGAGAAGUGAACCAGAGAAACAGACGUUGUGGUAUAUUACCUGGUU, which self-cleavage is on record?
The self-cleavage was 0.14.

For GUCCUCUUUCACGUGCGCGUGAAAGAGAGAAGUGAACCAGAGAAACAGAAGUUGUGGUAUAUUACCUGGUA, which self-cleavage is on record?
The self-cleavage was 0.0785.

For GUCCUCUUUCACGUGCGCGUGAAAGAGAGAAGUGAACCAGAGAAACAGAGGUUGUGGUAUAUUACCUGGUA, which self-cleavage is on record?
The self-cleavage was 0.137.

Which self-cleavage does the source give for GUCCUCUUUCACGUGCGCGUGAAAGAGAGAAGUGAACCAGAGAAACAGAUGUUGUGGUAUAUUACCUGGUA here?
Its self-cleavage is 0.177.

Which self-cleavage does the source give for GUCCUCUUUCACGUGCGCGUGAAAGAGAGAAGUGAACCAGAGAAACAGACGUUGUGGUAUAUUACUUGGUA here?
Its self-cleavage is 0.156.

For GUCCUCUUUCACGUGCGCGUGAAAGAGAGAAGUGAACCAGAGAAACAGACAUUGUGGUAUAUUACCUGGUA, which self-cleavage is on record?
Its self-cleavage is 0.172.

For GUCCUCUUUCACGUGCGCGUGAAAGAGAGAAGUGAACCAGAGAAACAGACGUUGUAGUAUAUUACCUGGUA, which self-cleavage is on record?
Its self-cleavage is 0.124.

For GUCCUCUUUCACGUGCGCGUGAAAGAGAGAAGUGAACCAGAGAAACAGACGUUGUCGUAUAUUACCUGGUA, which self-cleavage is on record?
The self-cleavage was 0.922.

Which self-cleavage does the source give for GUCCUCUUUCACGUGCGCGUGAAAGAGAGAAGUGAACCAGAGAAACAGACGUUGUGGUAUAUUACCUCGUA here?
Its self-cleavage is 0.189.

With GUCCUCUUUCACGUGCGCGUGAAAGAGAGAAGUGAACCAGAGAAACAGACGAUGUGGUAUAUUACCUGGUA as the variant, how does the self-cleavage read?
The self-cleavage was 0.135.

With GUCCUCUUUCACGUGCGCGUGAAAGAGAGAAGUGAACCAGAGAAACAGACGCUGUGGUAUAUUACCUGGUA as the variant, how does the self-cleavage read?
The self-cleavage was 0.218.

For GUCCUCUUUCACGUGCGCGUGAAAGAGAGAAGUGAACCAGAGAAACAGACGUUGAGGUAUAUUACCUGGUA, which self-cleavage is on record?
The self-cleavage was 0.148.

Which self-cleavage does the source give for GUCCUCUUUCACGUGCGCGUGAAAGAGAGAAGUGAACCAGAGAAACAGACGUUGUGGGAUAUUACCUGGUA here?
The self-cleavage was 0.0532.

For GUCCUCUUUCACGUGCGCGUGAAAGAGAGAAGUGAACCAGAGAAACAGACGUUGUGGUAUAAUACCUGGUA, which self-cleavage is on record?
Its self-cleavage is 0.0564.

For GUCCUCUUUCACGUGCGCGUGAAAGAGAGAAGUGAACCAGAGAAACAGACGUUGUGGUAUAUGACCUGGUA, which self-cleavage is on record?
Its self-cleavage is 0.0813.

Which self-cleavage does the source give for GUCCUCUUUCACGUGCGCGUGAAAGAGAGAAGUGAACCAGAGAAACAGACGUUGUGGUAUAUUACCUGGAA here?
Its self-cleavage is 0.144.

For GUCCUCUUUCACGUGCGCGUGAAAGAGAGAAGUGAACCAGAGAAACAGACGUUGUGGUAUAUUACCUGGGA, which self-cleavage is on record?
The self-cleavage was 0.0256.

For GUCCUCUUUCACGUGCGCGUGAAAGAGAGAAGUGAACCAGAGAAACAUACGUUGUGGUCUAUUACCUGGUA, which self-cleavage is on record?
The self-cleavage was 0.222.

Which self-cleavage does the source give for GUCCUCUUUCACGUGCGCGUGAAAGAGAGAAGUGAACCAGAGAAACAUACGUUGUGGUGUAUUACCUGGUA here?
Its self-cleavage is 0.121.

With GUCCUCUUUCACGUGCGCGUGAAAGAGAGAAGUGAACCAGAGAAACAUACGUUGUGGUAUCUUACCUGGUA as the variant, how does the self-cleavage read?
Its self-cleavage is 0.128.

Which self-cleavage does the source give for GUCCUCUUUCACGUGCGCGUGAAAGAGAGAAGUGAACCAGAGAAACAUACGUUGUGGUAUAUUCCCUGGUA here?
The self-cleavage was 0.255.

With GUCCUCUUUCACGUGCGCGUGAAAGAGAGAAGUGAACCAGAGAAACAUACGUUGUGGUAUAUUGCCUGGUA as the variant, how does the self-cleavage read?
Its self-cleavage is 0.0861.

Which self-cleavage does the source give for GUCCUCUUUCACGUGCGCGUGAAAGAGAGAAGUGAACCAGAGAAACAUACGUUGUGGUAUAUUUCCUGGUA here?
Its self-cleavage is 0.11.

For GUCCUCUUUCACGUGCGCGUGAAAGAGAGAAGUGAACCAGAGAAACAUACGUUGUGGUAUAUUACCUGGUC, which self-cleavage is on record?
The self-cleavage was 0.387.

For GUCCUCUUUCACGUGCGCGUGAAAGAGAGAAGUGAACCAGAGAAACAUACGUUGUGGUAUAUUACCUGGUU, which self-cleavage is on record?
The self-cleavage was 0.146.

With GUCCUCUUUCACGUGCGCGUGAAAGAGAGAAGUGAACCAGAGAAACAUACGUUGUGGUAUAUUAUCUGGUA as the variant, how does the self-cleavage read?
The self-cleavage was 0.154.

Which self-cleavage does the source give for GUCCUCUUUCACGUGCGCGUGAAAGAGAGAAGUGAACCAGAGAAACAUACGUUGUUGUAUAUUACCUGGUA here?
The self-cleavage was 0.231.

For GUCCUCUUUCACGUGCGCGUGAAAGAGAGAAGUGAACCAGAGAAACAUACGUUGUGAUAUAUUACCUGGUA, which self-cleavage is on record?
Its self-cleavage is 0.147.

With GUCCUCUUUCACGUGCGCGUGAAAGAGAGAAGUGAACCAGAGAAACAUACGUUGUGGUAUAUUACCUAGUA as the variant, how does the self-cleavage read?
Its self-cleavage is 0.244.

With GUCCUCUUUCACGUGCGCGUGAAAGAGAGAAGUGAACCAGAGAAACAUACGUUGUGGUAUAUUACCUCGUA as the variant, how does the self-cleavage read?
Its self-cleavage is 0.247.

For GUCCUCUUUCACGUGCGCGUGAAAGAGAGAAGUGAACCAGAGAAACAUACGUUGUGGUAUAUUACCUGAUA, which self-cleavage is on record?
The self-cleavage was 0.178.

Which self-cleavage does the source give for GUCCUCUUUCACGUGCGCGUGAAAGAGAGAAGUGAACCAGAGAAACAUACGUUGAGGUAUAUUACCUGGUA here?
Its self-cleavage is 0.196.

Which self-cleavage does the source give for GUCCUCUUUCACGUGCGCGUGAAAGAGAGAAGUGAACCAGAGAAACAUACGUUGGGGUAUAUUACCUGGUA here?
The self-cleavage was 0.223.

With GUCCUCUUUCACGUGCGCGUGAAAGAGAGAAGUGAACCAGAGAAACAUACGUUGUGGUAAAUUACCUGGUA as the variant, how does the self-cleavage read?
The self-cleavage was 0.107.

For GUCCUCUUUCACGUGCGCGUGAAAGAGAGAAGUGAACCAGAGAAACAUACGUUGUGGUAUAAUACCUGGUA, which self-cleavage is on record?
Its self-cleavage is 0.201.

For GUCCUCUUUCACGUGCGCGUGAAAGAGAGAAGUGAACCAGAGAAACAUACGUUGUGGUAUACUACCUGGUA, which self-cleavage is on record?
Its self-cleavage is 0.118.

— the RNAGym collection of RNA variant scans (doi:10.7554/elife.80360)
